We go through one substance from patent publication US20220411514A1, “ANTI-GAL3 ANTIBODIES AND METHODS OF USE FOR INSULIN RESISTANCE” (TrueBinding, Inc., priority 2021, published 2022).

Common to all, as to format: binding
Holding throughout (details): Example 14

One test addresses His-EK-cynoGal3. As to the kind of experiment: Affinity kinetics to cynomolgus Gal3 (Biacore T200). As for the experimental part:
In each cycle, duplicates were made by loading the same antibody to flow cells FC2 and FC4, and then analyte was flowed to all 4 flow cells. The detection was done pairwise, FC2-FC1 and FC4-FC3, to subtract non-specific binding of analyte to the surface. A cycle of 0 nM analyte was run prior to a dilution series of analyte. The 0 nM raw data were subtracted from each non-zero concentration data to minimize machine drifts. The data were analyzed by Biacore Evaluation software version 2.0. The binding affinities were characterized by fitting the kinetic sensograms to a monovalent binding model (1:1 binding).
(§1) The affinity of Gal3 binding to antibody was determined by acquiring real time Ligand:Analyte binding kinetics data and fitting the data with a 1:1 monovalent binding model. The kinetic evaluation procedure determines association and dissociation constants by fitting the experimental data to a 1:1 interaction model between analyte A and ligand B:
(§2) The affinity KD is the result of Kd divided by Ka.
(§3) The protocol disclosed in Example 9 was generally followed.
(SPR reads the build-up and loss of mass on a sensor chip optically.)

The next test deals with T1, His-EK-ratGal3 (Rattus norvegicus, UniProt P08699).
T1 sequence (P08699 1-262): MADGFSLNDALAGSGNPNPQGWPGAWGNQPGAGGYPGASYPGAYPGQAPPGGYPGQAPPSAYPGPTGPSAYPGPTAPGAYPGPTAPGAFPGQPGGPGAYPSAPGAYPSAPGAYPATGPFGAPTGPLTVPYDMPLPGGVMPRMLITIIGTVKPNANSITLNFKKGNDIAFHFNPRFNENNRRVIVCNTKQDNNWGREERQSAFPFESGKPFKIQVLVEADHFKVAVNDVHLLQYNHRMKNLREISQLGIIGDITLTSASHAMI
The test can be described thus: Affinity kinetics to rat Gal3 (Biacore T200). As to the method:
In each sample cycle, duplicates of the same antibody in HBS-EP+ with 0.5 mg/mL BSA at 10 μg/mL were captured to FC2 and FC4 by flowing at 10.0 μL/min for 120 seconds, and then diluted His-EK-ratGal3 in HBS-EP+ with 0.5 mg/mL BSA was injected to all 4 flow cells at 30.0 μL/min for 180 seconds, followed by dissociation for 240 seconds. A dilution series of His-EK-ratGal3 started from 300 nM, and was 1:3 diluted for 6 points. FC1 and FC3 were used as reference flow cells, and their sensograms were subtracted from FC2 and FC4 respectively to reduce non-specific binding background. Also, an additional sample cycle at 0 nM analyte was run, and its sensogram was subtracted from those of non-zero nM cycles to address machine drifts and bulk shifts. The data were analyzed by Biacore Evaluation software version 2.0. The binding affinities were characterized by fitting the kinetic sensograms to a monovalent binding model (1:1 binding).
as §1, §2, §3

For another test, the target named is mouse Gal3 (Mus musculus, UniProt P16110). The test can be described thus: Affinity kinetics to mouse Gal3 (Carterra LSA). As to the method: (§4) Kinetics experiments were performed on a Carterra LSA at 25° C.
Chain of mouse Gal3 (P16110 whole entry): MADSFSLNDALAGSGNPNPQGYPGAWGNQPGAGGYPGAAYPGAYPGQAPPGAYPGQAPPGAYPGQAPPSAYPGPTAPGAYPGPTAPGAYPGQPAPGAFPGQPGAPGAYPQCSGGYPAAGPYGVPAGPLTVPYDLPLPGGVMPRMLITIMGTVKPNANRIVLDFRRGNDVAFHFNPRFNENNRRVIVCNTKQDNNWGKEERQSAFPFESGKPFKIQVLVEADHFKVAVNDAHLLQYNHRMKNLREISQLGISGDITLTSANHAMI
(§5) Then, a dilution series of Gal3 (2, 4, 8, 16, 32, 64, and 128 nM) in HBSTE with 0.5 mg/mL BSA was injected to the whole array for 300 seconds to allow association followed by dissociation for 240 seconds. The kinetics constants were calculated by the software NextGenKIT.
as §1, §2, §3

The next test deals with T2, human Gal3 (Homo sapiens, UniProt P17931).
T2 construct: 6xHis (linker-spaced) (C); purchased AcroBio (Acro Biosystems) GA3-H5129
T2 sequence (P17931 whole entry): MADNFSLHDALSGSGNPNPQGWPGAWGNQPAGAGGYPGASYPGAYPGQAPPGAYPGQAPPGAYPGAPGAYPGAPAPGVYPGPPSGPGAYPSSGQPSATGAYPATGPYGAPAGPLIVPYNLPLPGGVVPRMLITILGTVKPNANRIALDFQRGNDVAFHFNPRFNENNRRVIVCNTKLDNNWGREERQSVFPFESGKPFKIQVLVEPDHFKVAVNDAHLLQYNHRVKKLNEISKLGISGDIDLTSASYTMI
The test can be described thus: Affinity kinetics to human Gal3 (Carterra LSA). As to the method:
as §4, §5, §1, §2, §3

As for “Synagis: negative control antibody, hIgG4 backbone [reference compound]”, the “affinity to His-EK-cynoGal3” value at His-EK-cynoGal3 is on record as “did not bind”. In addition, the “average affinity to His-EK-ratGal3” value with His-EK-ratGal3 is reported as “did not bind”. The “average affinity to mouse Gal3” value in the test with mouse Gal3 is given as “did not show any binding activity”. The “average affinity to human Gal3” value with human Gal3 is on record as “did not bind”.
